# Experimental data: patent publication US20250051435A1 (INVETX, published 2025)
# Residue numbers refer to the chain shown, from its start. In names and notes the source's numbering stands.
# T1: feline IL-5 (Kingfisher Biotech; RP1152F) (feline, UniProt O77515 20-134)
# T1 construct: Bought recombinant protein; also called fIL-5; fIL5
# T1 sequence (looked up): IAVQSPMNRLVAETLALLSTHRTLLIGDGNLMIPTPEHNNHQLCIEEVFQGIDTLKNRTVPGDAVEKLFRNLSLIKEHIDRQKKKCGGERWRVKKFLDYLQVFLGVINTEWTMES
# B1: MtxB N106Q (LCDR3) variant (antibody, V domains shown)
# VH: DVQLVESGGDLVKPGGSLRLTCVGSGFTFSNYAMSWVRQAPGEGLQWVATIGSGGHYTYHPDSVKGRFTISRDNAKNTLYLQMNSLQTEDTASYYCTRETDGYDGMDYWGQGTLVTVSS
# VL: DIVMTQTPLSLSVTPGEPASISCRASQSISDYLYWYLQKPGQSPRRLIYYASQSISGVPDRFSGSGSGTDFTLRISRVEADDVGVYYCQQGHSFPYTFGPGTKLEIK
# notes: Feline IgG with feline kappa constant domain
# B2: MtxB N106S (LCDR3) variant (antibody, V domains shown)
# VH: B1 VH
# VL: B1 VL with Q90S
# notes: as for B1
# B3: 1H3-C6 Fab (MtxB HCDR3 variant) (Fab, V domains shown)
# VH: B1 VH with D104G, G105P, Y108V
# VL: B1 VL with Q90N
# notes: Fab from the MtxB HCDR3 library; the entry named is the parent, the changed CDR is told under detail
# B4: LxH3-D3 Fab (affinity matured MtxB) (Fab, V domains shown)
# VH: B1 VH with D104G, G105P, M106I, D107L, Y108D
# VL: B1 VL with R46L, I48F, Y49N, Y50V, A51L, S54R, I55S, H92L, S93V
# notes: Fab from the Stage B library on MtxB; the entries named are the parent, the changed regions are told under detail
# B5: MtxB Fab (Fab, V domains shown)
# VH: B1 VH
# VL: B1 VL with Q90N
# notes: Fab made in E. coli from the phagemid: heavy chain variable domain, CH1 and partial hinge; light chain of MtxB; also called Matrix B; original MtxB Fab
# B6: LxH3-D9 Fab (affinity matured MtxB) (Fab, V domains shown)
# VH: B1 VH with D104G, G105P, M106I, D107L, Y108D
# VL: DIVMTQTPLSLSVTPGEPASISCRASQSISDYLYWYLQKPGQSPRLIINYGSVLLSGVPDRFSGSGSGTDFTLRISRVEADDVGVYYCQQGLLFPYTFGPGTKLEIKR
# notes: as for B4
# B7: LxH3-E2 Fab (affinity matured MtxB) (Fab, V domains shown)
# VH: B1 VH with D104G, G105P, M106I, D107L, Y108D
# VL: B6 VL with L46R, I48F, Y50H, G51L, V53P, L54S, L55S, L92S, L93V
# notes: as for B4
# B8: LxH3-B6 Fab (affinity matured MtxB) (Fab, V domains shown)
# VH: B1 VH with D104G, G105P, M106I, D107L, Y108D
# VL: B6 VL with I48F, Y50P, G51L, L54R, L55R, L92M, L93V
# notes: as for B4
# B9: LxH3-D1 Fab (affinity matured MtxB) (Fab, V domains shown)
# VH: B1 VH with D104G, G105P, M106I, D107L, Y108D
# VL: B6 VL with L46R, I47L, N49Y, Y50F, L54R, L55S, L93Q
# notes: as for B4
# B10: LxH3-G7 Fab (affinity matured MtxB) (Fab, V domains shown)
# VH: B1 VH with D104G, G105P, M106I, D107L, Y108D
# VL: B6 VL with I47V, I48F, Y50H, G51A, V53P, L54V, L55P, L92I, L93R
# notes: as for B4
# B11: LxH3-G10 Fab (affinity matured MtxB) (Fab, V domains shown)
# VH: B1 VH with D104G, G105P, M106I, D107L, Y108D
# VL: B6 VL with L46R, N49F, Y50T, V53Q, L54R, L55N, L92A, L93F
# notes: as for B4
# B12: LxH3-F3 Fab (affinity matured MtxB) (Fab, V domains shown)
# VH: B1 VH with D104G, G105P, M106L, Y108L
# VL: B1 VL with R46L, I48F, Y49N, Y50S, A51V, Q53P, S54T, I55R, H92V, S93V
# notes: as for B4
# B13: LxH3-D6 Fab (affinity matured MtxB) (Fab, V domains shown)
# VH: B1 VH with D104G, G105P, M106I, D107L, Y108D
# VL: B6 VL with L46R, I47V, N49Y, Y50T, V53Q, L54R, L55S, L93V
# notes: as for B4
# B14: LxH3-F5 Fab (affinity matured MtxB) (Fab, V domains shown)
# VH: B1 VH with D104G, G105P, M106L, Y108L
# VL: B6 VL with Y50P, G51M, V53G, L54Q
# notes: as for B4
# B15: LxH3-A9 Fab (affinity matured MtxB) (Fab, V domains shown)
# VH: B1 VH with D104G, G105P, M106L, Y108L
# VL: B6 VL with L46R, N49F, Y50T, V53Q, L54R, L55N, L92M, L93V
# notes: as for B4
# B16: LxH3-B10 Fab (affinity matured MtxB) (Fab, V domains shown)
# VH: B1 VH with D104G, G105P, M106I, D107L, Y108D
# VL: B6 VL with L46R, I47L, N49F, Y50T, V53Q, L54R, L55A, L92V, L93R
# notes: as for B4
# B17: LxH3-F11 Fab (affinity matured MtxB) (Fab, V domains shown)
# VH: B1 VH with D104G, G105P, M106I, D107L, Y108D
# VL: DIVMTQTPLSLSVTPGEPASISCRASQSISDYLYWYLQKPGQSPRRVFFHSSYRQSGVPDRFSGSGSGTDFTLRISRVEADDVGVYYCQQGMLFPFTFGPGTKLEIKR
# notes: as for B4
# B18: LxH3-F4 Fab (affinity matured MtxB) (Fab, V domains shown)
# VH: B1 VH with D104G, G105P, D107L, Y108D
# VL: B6 VL with I47L, I48F, L55A, L92Y
# notes: as for B4
# B19: LxH3-F12 Fab (affinity matured MtxB) (Fab, V domains shown)
# VH: B1 VH with D104G, G105P, M106L, Y108L
# VL: B6 VL with I48F, Y50P, G51L, L54R, L55R, L92Y, L93V
# notes: as for B4
# B20: LxH3-E8 Fab (affinity matured MtxB) (Fab, V domains shown)
# VH: B1 VH with D104G, G105P, M106I, D107L, Y108D
# VL: B6 VL with Y50Q, G51A, V53S, L54K, L92P
# notes: as for B4
# B21: LxH3-G4 Fab (affinity matured MtxB) (Fab, V domains shown)
# VH: B1 VH with D104G, G105P, Y108L
# VL: B6 VL with L46R, I47L, N49Y, Y50F, V53L, L55S
# notes: as for B4
# B22: LxH3-G2 Fab (affinity matured MtxB) (Fab, V domains shown)
# VH: B1 VH with D104G, G105P, M106L, Y108L
# VL: B6 VL with I47V, Y50W, V53Q, L54R, L55A, L92A, L93I
# notes: as for B4
# B23: 1L2-D12 Fab (MtxB LCDR2 variant) (Fab, V domains shown)
# VH: B1 VH
# VL: B1 VL with L47I, I48F, Y49F, Y50G, A51Y, Q53G, S54T, I55K, Q90N
# notes: Fab from the MtxB LCDR2 library; the entry named is the parent, the changed CDR is told under detail
# B24: 2L2-G12 Fab (MtxB LCDR2 variant) (Fab, V domains shown)
# VH: B1 VH
# VL: B1 VL with L47V, I48F, Y49F, Y50T, A51P, Q53D, I55A, Q90N
# notes: Fab from the MtxB LCDR2 library
# B25: 1L2-D1 Fab (MtxB LCDR2 variant) (Fab, V domains shown)
# VH: B1 VH
# VL: B1 VL with L47I, I48F, Y49F, Y50T, A51E, S54R, I55A, Q90N
# notes: as for B23
# B26: 1L2-H7 Fab (MtxB LCDR2 variant) (Fab, V domains shown)
# VH: B1 VH
# VL: B1 VL with L47V, I48F, Y49F, Y50T, A51V, Q53G, S54G, I55V, Q90N
# notes: as for B23
# B27: 1L2-E7 Fab (MtxB LCDR2 variant) (Fab, V domains shown)
# VH: B1 VH
# VL: B1 VL with L47I, I48F, Y49F, Y50A, A51S, Q53L, S54Y, I55D, Q90N
# notes: as for B23
# B28: 1L2a-H2 Fab (MtxB LCDR2 variant) (Fab, V domains shown)
# VH: B1 VH
# VL: B1 VL with L47V, I48F, Y50T, A51D, Q53A, S54E, I55V, Q90N
# notes: as for B23
# Molecular target: T1, feline IL-5 (Kingfisher Biotech; …)
# Experiment: SPR Biacore T200, IgG captured on goat anti-feline IgG CM5 chip, feline IL-5 as analyte
# Excerpt: Asparagine deamidation for asparagine residues and oxidation at methionine residues can negatively impact the potency and the stability of an antibody (Xu et al., 2019. MABS, 11:239-264). These post-translational modifications can be particularly problematic when they reside in the CDRs. […] DNA constructs were synthesized (GeneArt) encoding the MtxB clone with substitutions to eliminate the potential sequence liabilities. For the NG site in LCDR3, the Asn (position 106) was substituted with either a Gln or a Ser and for the Met in HCDR3 (position 115), a Len was substituted. The DNA constructs with the light chain variants were fused to the feline kappa constant domain. These DNA constructs were subcloned into the pcDNA3.4 expression vector (ThermoFisher) and expressed with the ExpiCHO system (ThermoFisher). The antibodies were purified with mAbSelect SuRe chromatography (Cytiva) and buffer exchanged into 20 mM sodium acetate, 136 mM sodium chloride, pH 5.5. The variants were tested in an SPR experiment using a Biacore T200 instrument to measure their affinity to feline IL-5 (Kingfisher Biotech; RP1152F). Goat anti-feline IgG was immobilized onto a Series S CM5 sensor chip (Cytiva) and the original MtxB clone and the variants containing the amino acid substitutions were captured on the chip at 5 μg/ml.
Binder,Kd [nM],koff [s⁻¹],kon [M⁻¹ s⁻¹]
B1,0.56,8.6e-05,150000
B2,3.6,0.00027,75000

# Molecular target: T1, feline IL-5 (Kingfisher Biotech; …)
# Experiment: ELISA, Fab culture supernatant on plate-coated feline IL-5, anti-feline Fab'2-HRP detection
# Excerpt: Fragments containing the pre-selected CDR pools from these libraries were randomly paired by overlap PCR to create a new library incorporating mutations throughout all targeted CDRs. The phage propagated following round 4 of selection were used for PCR amplication of LCDR2, LCDR3 and HCDR3. The PCR-amplified fragment containing the light chain and the heavy chain were ligated into a phagemid vector and transformed into E. coli. The number of transformants was approximately 2E+10. Library plasmid DNA was purified using a midi-prep purification method. Ten pg of the library plasmid DNA was transformed into E. coli for growth and propagation of the Fab phage. After overnight phage production, phage was precipitated from the culture supernatant and resuspended in blocking buffer (1% BSA/PBS). The phage were treated at 58° C. for 10 minutes to remove unstable clones prior to the selections. The input phage was incubated for 30 minutes in a blocked ELISA plate coated with feline IL-5. The ELISA plate was washed with PBS, pH 7.4 followed by acid elution of the bound phage. The output phage was then used to infect E. coli for propagation for the next round of selection. For rounds 1, 2, 3 and 4, the ELISA plates were coated with 10 μg/ml, 8 μg/ml, 5 μg/ml and 1 μg/ml, respectively. The number of washes after each round were 3, 5, 10 and 10 for rounds 1, 2, 3 and 4, respectively. Ninety-three clones from the round 4 output were grown overnight for Fab production and tested for binding to feline IL-5 in an ELISA format. For this assay, supernatants from the overnight cultures were incubated in Immulon 4 HBX high-binding plate that was coated with 10 μg/ml feline IL-5 (Kingfisher Biotech; Cat #RP1152F) and blocked with 1% bovine serum albumin in phosphate buffered saline (PBS), pH 7.4. The controls added included the MtxB clone and clone 1H3-C6 which was the top affinity clone from the first stage A1 step. The Fab binding to the feline IL-5 was detected with anti-feline Fab′₂-HRP conjugate.
# The results are shown in Table 8A which compares relative Fab binding affinity to feline IL-5 by Fabs disclosed herein. IL-5 binding was detected with anti-feline Fab′₂-HRP conjugate. Differences in CDR amino acids compared to the MtxB are underlined. The data in the last column are absorbance following addition of substrate to detect the HRP conjugate.
row,Binder,fIL5 Fab (ELISA absorbance) [absorbance]
1,B3,0.1
2,B4,1.28
3,B5,0.054
4,B6,1.13
5,B7,0.809
6,B8,0.972
7,B9,1.01
8,B10,0.672
9,B11,0.877
10,B12,1.16
11,B13,0.708
12,B14,1.04
13,B15,0.722
14,B16,0.702
15,B17,0.782
16,B18,0.738
17,B19,0.513
18,B20,0.748
19,B21,0.545
20,B22,0.653

# Molecular target: T1, feline IL-5 (Kingfisher Biotech; …)
# Experiment: ELISA on plate-coated feline IL-5, Fab at 65 ng/ml dimerized with goat anti-feline IgG F(ab')2, anti-goat-HRP detection
row,Binder,"Normalized fIL-5 ELISA value, 65 ng/ml Fab"
1,B3,0.967
2,B5,0.165
3,B23,0.303
4,B24,0.251
5,B25,0.492
6,B26,0.283
7,B27,0.366
8,B28,0.559
